Source: patent US20150147764

Key:
[1] = test system: FRETS-VWF73 polypeptide substrate (SEQ ID NO: 6), VWF D1596 to R1668
[2] = test system: GTI_FRET4 polypeptide substrate (SEQ ID NO: 1), synthetic 62 amino acid VWF A2 domain derived substrate
[3] = test system: GTI_FRET5 polypeptide substrate (SEQ ID NO: 7), synthetic 55 amino acid VWF A2 domain derived substrate
Sequence of GTI_FRET5 polypeptide substrate (SEQ ID NO: 7), synthetic 55 amino acid VWF A2 domain derived substrate (chain, as listed by the source): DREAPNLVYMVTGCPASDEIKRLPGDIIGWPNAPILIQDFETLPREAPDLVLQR

Sequence of GTI_FRET4 polypeptide substrate (SEQ ID NO: 1), synthetic 62 amino acid VWF A2 domain derived substrate (chain, as listed by the source): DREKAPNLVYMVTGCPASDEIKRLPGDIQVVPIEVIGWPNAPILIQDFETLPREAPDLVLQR
Sequence of FRETS-VWF73 polypeptide substrate (SEQ ID NO: 6), VWF D1596 to R1668 (chain, as listed by the source): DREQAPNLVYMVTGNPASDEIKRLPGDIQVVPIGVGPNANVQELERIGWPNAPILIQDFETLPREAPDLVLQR

ADAMTS13 (a disintegrin-like and metallopeptidase with thrombospondin type-1 motif, 13), as present in plasma samples, calibrators and controls
RFU difference between Calibrator A and Calibrator E at 30 minutes [1]: approximately 1500 to 2000 RFU difference
RFU difference between Calibrator A and E at 30 minutes [1]: 2500 RFU observed for FRETS-VWF73
Increase in fluorescence (15 min - 0 min reading), sample Calibrator A [2]: 676 RFU
Increase in fluorescence (15 min - 0 min reading), sample Calibrator B [2]: 1760 RFU
Increase in fluorescence (15 min - 0 min reading), sample Calibrator C [2]: 6180 RFU
Increase in fluorescence (15 min - 0 min reading), sample Calibrator D [2]: 10900 RFU
Increase in fluorescence (15 min - 0 min reading), sample Calibrator E [2]: 18700 RFU
Increase in fluorescence (15 min - 0 min reading), sample MON110707 [2]: 17900 RFU
Increase in fluorescence (15 min - 0 min reading), sample Positive Control High [2]: 9150 RFU
Increase in fluorescence (15 min - 0 min reading), sample Positive Control Low [2]: 2180 RFU
Increase in fluorescence (15 min - 0 min reading), sample UAMS041609 [2]: 3880 RFU
Increase in fluorescence (15 min - 0 min reading), sample VF [2]: 1290 RFU
Increase in fluorescence (30 min - 0 min reading), sample Calibrator A [2]: 843 RFU
Increase in fluorescence (30 min - 0 min reading), sample Calibrator B [2]: 3000 RFU
Increase in fluorescence (30 min - 0 min reading), sample Calibrator C [2]: 11700 RFU
Increase in fluorescence (30 min - 0 min reading), sample Calibrator D [2]: 20600 RFU
Increase in fluorescence (30 min - 0 min reading), sample Calibrator E [2]: 35100 RFU
Increase in fluorescence (30 min - 0 min reading), sample MON110707 [2]: 33400 RFU
Increase in fluorescence (30 min - 0 min reading), sample Positive Control High [2]: 17300 RFU
Increase in fluorescence (30 min - 0 min reading), sample Positive Control Low [2]: 3900 RFU
Increase in fluorescence (30 min - 0 min reading), sample UAMS041609 [2]: 7930 RFU
Increase in fluorescence (30 min - 0 min reading), sample VF [2]: 2440 RFU
Increase in fluorescence (45 min - 0 min reading), sample Calibrator A [2]: 921 RFU
Increase in fluorescence (45 min - 0 min reading), sample Calibrator B [2]: 4160 RFU
Increase in fluorescence (45 min - 0 min reading), sample Calibrator C [2]: 16800 RFU
Increase in fluorescence (45 min - 0 min reading), sample Calibrator D [2]: 29200 RFU
Increase in fluorescence (45 min - 0 min reading), sample Calibrator E [2]: 49400 RFU
Increase in fluorescence (45 min - 0 min reading), sample MON110707 [2]: 46800 RFU
Increase in fluorescence (45 min - 0 min reading), sample Positive Control High [2]: 24900 RFU
Increase in fluorescence (45 min - 0 min reading), sample Positive Control Low [2]: 5510 RFU
Increase in fluorescence (45 min - 0 min reading), sample UAMS041609 [2]: 11700 RFU
Increase in fluorescence (45 min - 0 min reading), sample VF [2]: 3550 RFU
Increase in fluorescence (60 min - 0 min reading), sample Calibrator A [2]: 1170 RFU
Increase in fluorescence (60 min - 0 min reading), sample Calibrator B [2]: 5360 RFU
Increase in fluorescence (60 min - 0 min reading), sample Calibrator C [2]: 21700 RFU
Increase in fluorescence (60 min - 0 min reading), sample Calibrator D [2]: 37300 RFU
Increase in fluorescence (60 min - 0 min reading), sample Calibrator E [2]: 61100 RFU
Increase in fluorescence (60 min - 0 min reading), sample MON110707 [2]: 58700 RFU
Increase in fluorescence (60 min - 0 min reading), sample Positive Control High [2]: 31900 RFU
Increase in fluorescence (60 min - 0 min reading), sample Positive Control Low [2]: 7170 RFU
Increase in fluorescence (60 min - 0 min reading), sample UAMS041609 [2]: 15900 RFU
Increase in fluorescence (60 min - 0 min reading), sample VF [2]: 4690 RFU
Increase in fluorescence (75 min - 0 min reading), sample Calibrator A [2]: 1010 RFU
Increase in fluorescence (75 min - 0 min reading), sample Calibrator B [2]: 6470 RFU
Increase in fluorescence (75 min - 0 min reading), sample Calibrator C [2]: 26700 RFU
Increase in fluorescence (75 min - 0 min reading), sample Calibrator D [2]: 44500 RFU
Increase in fluorescence (75 min - 0 min reading), sample Calibrator E [2]: 70600 RFU
Increase in fluorescence (75 min - 0 min reading), sample MON110707 [2]: 68400 RFU
Increase in fluorescence (75 min - 0 min reading), sample Positive Control High [2]: 39800 RFU
Increase in fluorescence (75 min - 0 min reading), sample Positive Control Low [2]: 8790 RFU
Increase in fluorescence (75 min - 0 min reading), sample UAMS041609 [2]: 19900 RFU
Increase in fluorescence (75 min - 0 min reading), sample VF [2]: 5780 RFU
Increase in fluorescence (90 min - 0 min reading), sample Calibrator A [2]: 959 RFU
Increase in fluorescence (90 min - 0 min reading), sample Calibrator B [2]: 7580 RFU
Increase in fluorescence (90 min - 0 min reading), sample Calibrator C [2]: 32200 RFU
Increase in fluorescence (90 min - 0 min reading), sample Calibrator D [2]: 53600 RFU
Increase in fluorescence (90 min - 0 min reading), sample Calibrator E [2]: 83000 RFU
Increase in fluorescence (90 min - 0 min reading), sample MON110707 [2]: 78400 RFU
Increase in fluorescence (90 min - 0 min reading), sample Positive Control High [2]: 47500 RFU
Increase in fluorescence (90 min - 0 min reading), sample Positive Control Low [2]: 10400 RFU
Increase in fluorescence (90 min - 0 min reading), sample UAMS041609 [2]: 24700 RFU
Increase in fluorescence (90 min - 0 min reading), sample VF [2]: 7260 RFU
RFU difference between Calibrator A (0% ADAMTS13 activity) and Calibrator E (100% ADAMTS13 activity) at 30 minutes [2]: approximately 34,000 Relative Fluorescence Units (RFU) difference
RFU difference between Calibrator A and E at 30 minutes [2]: approximately 35000 RFU
calibration curve / cleavage [3]: the resulting calibration curve that is obtained is linear (see FIG. 5) and cleavage of the substrate occurs
change in fluorescence with time (cleavage) [3]: demonstrates that cleavage of the SEQ ID NO: 7 polypeptide substrate occurs
